Among the data in paper PMC13147308 (2025) are Kd values, retold here.

One may read the Kd as the constant that tells how readily two partners part at equilibrium. Read a high Kd as weaker binding.

Holding throughout (test): ITC; Tris buffer
(In ITC the heat of successive injections is recorded.)

For experiment [1], the target named is T1, SauCas9 WED (wedge-like) domain, His-tagged (Staphylococcus aureus).
T1 chain: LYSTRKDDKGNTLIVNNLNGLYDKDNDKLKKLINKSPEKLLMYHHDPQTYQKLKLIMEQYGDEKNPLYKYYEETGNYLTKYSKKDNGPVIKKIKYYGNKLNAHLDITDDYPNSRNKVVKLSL

The target in experiment [2] is T2, SauCas9 PI (PAM-interacting) domain, His-tagged (Staphylococcus aureus).
T2 chain: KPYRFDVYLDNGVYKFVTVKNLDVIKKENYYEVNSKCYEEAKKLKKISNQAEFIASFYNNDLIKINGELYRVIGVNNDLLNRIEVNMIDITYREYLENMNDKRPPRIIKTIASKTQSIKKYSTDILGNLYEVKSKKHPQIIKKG

Experiment [3] deals with T3, Staphylococcus aureus Cas9, full length, His-tagged (Staphylococcus aureus, UniProt J7RUA5 1-1053).
T3 chain: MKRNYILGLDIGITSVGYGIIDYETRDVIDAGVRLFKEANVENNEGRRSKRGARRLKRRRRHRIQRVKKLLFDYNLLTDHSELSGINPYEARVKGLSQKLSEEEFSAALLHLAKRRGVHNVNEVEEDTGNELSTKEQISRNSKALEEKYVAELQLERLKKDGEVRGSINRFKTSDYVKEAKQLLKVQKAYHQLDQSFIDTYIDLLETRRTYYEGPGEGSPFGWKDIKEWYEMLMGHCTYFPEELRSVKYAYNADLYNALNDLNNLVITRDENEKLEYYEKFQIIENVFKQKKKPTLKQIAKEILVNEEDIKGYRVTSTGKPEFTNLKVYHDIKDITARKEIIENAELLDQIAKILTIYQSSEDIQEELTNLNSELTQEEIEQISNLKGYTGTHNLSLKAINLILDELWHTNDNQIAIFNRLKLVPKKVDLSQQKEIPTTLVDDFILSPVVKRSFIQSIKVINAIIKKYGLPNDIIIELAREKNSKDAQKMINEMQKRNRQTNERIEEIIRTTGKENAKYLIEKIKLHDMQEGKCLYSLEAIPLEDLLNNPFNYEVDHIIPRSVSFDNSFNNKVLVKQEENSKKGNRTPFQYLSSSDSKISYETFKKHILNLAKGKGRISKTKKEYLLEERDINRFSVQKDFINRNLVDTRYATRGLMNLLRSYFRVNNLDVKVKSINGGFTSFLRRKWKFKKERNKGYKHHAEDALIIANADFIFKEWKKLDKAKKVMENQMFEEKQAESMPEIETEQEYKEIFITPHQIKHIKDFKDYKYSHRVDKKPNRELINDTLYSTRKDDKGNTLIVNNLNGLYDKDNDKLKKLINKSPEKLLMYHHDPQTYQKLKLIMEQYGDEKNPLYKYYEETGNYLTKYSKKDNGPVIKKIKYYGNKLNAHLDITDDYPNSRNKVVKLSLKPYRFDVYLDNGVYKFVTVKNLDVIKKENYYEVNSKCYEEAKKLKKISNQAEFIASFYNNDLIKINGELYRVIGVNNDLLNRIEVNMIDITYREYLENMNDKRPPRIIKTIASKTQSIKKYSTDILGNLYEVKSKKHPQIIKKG

Experiment [4] addresses T4, SauCas9 WED-PI domain construct, His-tagged (Staphylococcus aureus).
T4 chain: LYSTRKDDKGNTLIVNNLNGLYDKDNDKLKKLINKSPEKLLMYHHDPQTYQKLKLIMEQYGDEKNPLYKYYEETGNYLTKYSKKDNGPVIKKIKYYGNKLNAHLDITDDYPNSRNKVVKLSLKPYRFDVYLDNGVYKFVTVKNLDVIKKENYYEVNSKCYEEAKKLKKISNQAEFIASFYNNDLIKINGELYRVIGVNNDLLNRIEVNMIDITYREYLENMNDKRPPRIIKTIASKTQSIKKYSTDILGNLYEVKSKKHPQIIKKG

B1: Staphylococcus haemolyticus AcrIIA13b, wild type, with C-terminal 6xHis tag (natural protein)
chain: MNELNNKMIEDVVLGEVELIEDLGQYFIDIEGDYEYNVEFATLSEVDYKVCALYEVATSKTYEVPYHDKLEKEDMKLFYDKWLEKDQQEETYIESVFFVNREDAESYIKDVLKGKESLTEVAAEIGYFELEHHHHHH
In the case of B1, the equilibrium dissociation constant (Kd) in experiment [1] came out at 8.17 µM; in experiment [2] it was 3.83 µM; in experiment [3], 6.15 µM; in experiment [4] it was 1.61 µM.
